Consider two molecules from paper PMC5289745 (Biochemistry, 2015).

The target in this experiment is PcrV (residues 25–294) (P. aeruginosa, UniProt G3XD49 25-294). Kind of experiment: SPR.

B1: PcrG^9–76-GB1-His6 (domain or fragment)
chain: MEDTLRATVQAAELAIRDSEERGRLLAEMWQGLGLAADAGELLFQAPERELARAAEEELLAELRRMRSSGSENLYFQ
Regarding B1, binding was characterised by a dissociation constant (Kd) of 24 nM.

B2: PcrG-GB1-His6 (natural protein)
chain: MGDMNEYTEDTLRATVQAAELAIRDSEERGRLLAEMWQGLGLAADAGELLFQAPERELARAAEEELLAELRRMRSSQPTQGEQGTRPRRPTPMRGLLIGSENLYFQ
B2 registered a Kd of 26 nM.
